Experiments:
GST-ONAC022 [1] = target: T1, GST-ONAC022 (Oryza sativa (rice), UniProt Q10S65 1-316); assay: EMSA; self-competition by 200x unlabeled wNACRS attenuates the shift; 10 uL with 5x EMSA buffer (Beyotime chemiluminescent EMSA kit), 2 ug protein, 1 uL biotin probe; competitor preincubated 20 min; 8% native PAGE; salt, pH and temperature not stated; settings: protein: recombinant; tags: N-terminal GST (pGEX-6p-1); chain copies: 2; blunt
T1 sequence: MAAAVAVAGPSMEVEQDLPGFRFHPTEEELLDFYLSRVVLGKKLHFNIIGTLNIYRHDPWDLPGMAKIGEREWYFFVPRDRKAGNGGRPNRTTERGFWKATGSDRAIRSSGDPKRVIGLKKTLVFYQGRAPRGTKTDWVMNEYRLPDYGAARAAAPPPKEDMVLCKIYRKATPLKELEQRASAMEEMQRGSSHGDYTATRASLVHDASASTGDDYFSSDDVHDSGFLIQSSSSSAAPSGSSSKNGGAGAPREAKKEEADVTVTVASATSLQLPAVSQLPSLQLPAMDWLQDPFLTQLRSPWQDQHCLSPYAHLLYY

GST-ONAC022 [2] = target: T1, GST-ONAC022; assay: EMSA; 10 uL with 5x EMSA buffer (Beyotime chemiluminescent EMSA kit), 2 ug protein, 1 uL biotin probe; competitor preincubated 20 min; 8% native PAGE; salt, pH and temperature not stated; settings: protein: recombinant; tags: N-terminal GST (pGEX-6p-1); chain copies: 2; blunt

B1: wNACRS (dsDNA)
DNA 1: ATCGCATGTGGAGCACGGAGCACGTTTT
DNA 2: AAAACGTGCTCCGTGCTCCACATGCGAT
binding result (GST-ONAC022 [1]): binds

B2: mNACRS (dsDNA)
DNA 1: ATCGAAAAAAGAGAAAAGAGAAAATTTT
DNA 2: AAAATTTTCTCTTTTCTCTTTTTTCGAT
binding result (GST-ONAC022 [2]): no binding
